From IntAct's records for PubMed 14673118

B1: Thioredoxin (Synechocystis sp. (strain PCC 6803 / Kazusa)), P52231 (parent)
chain: MSATPQVSDASFKEDVLDSELPVLVDFWAPWCGPCRMVAPVVDEISQQYEGKVKVVKLNTDENPNTASQYGIRSIPTLMIFKGGQRVDMVVGAVPKTTLASTLEKYL
partner: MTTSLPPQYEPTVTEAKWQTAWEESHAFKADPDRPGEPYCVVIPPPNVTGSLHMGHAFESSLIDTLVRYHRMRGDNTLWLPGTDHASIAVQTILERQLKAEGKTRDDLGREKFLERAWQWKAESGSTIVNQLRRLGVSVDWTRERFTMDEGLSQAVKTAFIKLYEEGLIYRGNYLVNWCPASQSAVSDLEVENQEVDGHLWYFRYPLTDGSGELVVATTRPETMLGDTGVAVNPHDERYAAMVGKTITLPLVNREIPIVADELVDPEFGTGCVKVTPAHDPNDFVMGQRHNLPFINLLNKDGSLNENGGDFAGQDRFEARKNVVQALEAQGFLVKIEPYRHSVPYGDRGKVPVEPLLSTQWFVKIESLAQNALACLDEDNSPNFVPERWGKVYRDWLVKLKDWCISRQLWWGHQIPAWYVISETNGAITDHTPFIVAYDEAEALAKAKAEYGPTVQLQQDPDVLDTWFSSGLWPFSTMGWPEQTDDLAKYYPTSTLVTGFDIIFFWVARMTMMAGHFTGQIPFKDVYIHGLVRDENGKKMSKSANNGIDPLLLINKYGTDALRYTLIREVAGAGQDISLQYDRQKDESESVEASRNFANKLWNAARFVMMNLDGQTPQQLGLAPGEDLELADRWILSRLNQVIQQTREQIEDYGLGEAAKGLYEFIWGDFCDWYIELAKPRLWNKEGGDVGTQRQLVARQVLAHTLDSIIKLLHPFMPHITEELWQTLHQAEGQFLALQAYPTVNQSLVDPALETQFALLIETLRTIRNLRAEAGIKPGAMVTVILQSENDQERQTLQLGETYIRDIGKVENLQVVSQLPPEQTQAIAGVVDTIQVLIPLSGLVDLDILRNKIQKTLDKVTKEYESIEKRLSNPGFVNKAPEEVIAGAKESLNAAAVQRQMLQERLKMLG
B2: Thioredoxin (Synechocystis sp. (strain PCC 6803 / Kazusa)), P52231 (parent)
chain: B1 chain
partner: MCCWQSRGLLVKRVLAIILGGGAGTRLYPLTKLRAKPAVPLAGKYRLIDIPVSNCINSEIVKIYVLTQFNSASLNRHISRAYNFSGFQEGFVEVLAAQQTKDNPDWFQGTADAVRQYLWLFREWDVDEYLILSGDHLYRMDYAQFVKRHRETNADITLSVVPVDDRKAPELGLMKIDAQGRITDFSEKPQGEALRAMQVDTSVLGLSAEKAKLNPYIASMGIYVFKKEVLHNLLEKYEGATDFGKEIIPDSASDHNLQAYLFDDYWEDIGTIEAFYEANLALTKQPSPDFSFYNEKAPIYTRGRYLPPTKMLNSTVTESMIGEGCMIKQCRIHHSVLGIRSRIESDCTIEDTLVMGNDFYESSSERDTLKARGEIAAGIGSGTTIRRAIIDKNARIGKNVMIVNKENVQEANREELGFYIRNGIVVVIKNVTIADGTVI
B3: Thioredoxin (Synechocystis sp. (strain PCC 6803 / Kazusa)), P52231 (parent)
chain: B1 chain
partner: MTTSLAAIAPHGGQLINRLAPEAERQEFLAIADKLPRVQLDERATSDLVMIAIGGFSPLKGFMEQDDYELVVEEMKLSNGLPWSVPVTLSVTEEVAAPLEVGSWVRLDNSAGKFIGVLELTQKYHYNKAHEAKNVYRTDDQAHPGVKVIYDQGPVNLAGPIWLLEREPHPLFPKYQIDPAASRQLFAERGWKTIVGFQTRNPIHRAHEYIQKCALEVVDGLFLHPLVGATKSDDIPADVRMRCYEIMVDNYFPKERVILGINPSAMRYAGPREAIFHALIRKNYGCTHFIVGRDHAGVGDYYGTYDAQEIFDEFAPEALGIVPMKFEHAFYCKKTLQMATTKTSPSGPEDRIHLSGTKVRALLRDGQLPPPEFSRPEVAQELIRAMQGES
B4: Thioredoxin (Synechocystis sp. (strain PCC 6803 / Kazusa)), P52231 (parent)
chain: B1 chain
partner: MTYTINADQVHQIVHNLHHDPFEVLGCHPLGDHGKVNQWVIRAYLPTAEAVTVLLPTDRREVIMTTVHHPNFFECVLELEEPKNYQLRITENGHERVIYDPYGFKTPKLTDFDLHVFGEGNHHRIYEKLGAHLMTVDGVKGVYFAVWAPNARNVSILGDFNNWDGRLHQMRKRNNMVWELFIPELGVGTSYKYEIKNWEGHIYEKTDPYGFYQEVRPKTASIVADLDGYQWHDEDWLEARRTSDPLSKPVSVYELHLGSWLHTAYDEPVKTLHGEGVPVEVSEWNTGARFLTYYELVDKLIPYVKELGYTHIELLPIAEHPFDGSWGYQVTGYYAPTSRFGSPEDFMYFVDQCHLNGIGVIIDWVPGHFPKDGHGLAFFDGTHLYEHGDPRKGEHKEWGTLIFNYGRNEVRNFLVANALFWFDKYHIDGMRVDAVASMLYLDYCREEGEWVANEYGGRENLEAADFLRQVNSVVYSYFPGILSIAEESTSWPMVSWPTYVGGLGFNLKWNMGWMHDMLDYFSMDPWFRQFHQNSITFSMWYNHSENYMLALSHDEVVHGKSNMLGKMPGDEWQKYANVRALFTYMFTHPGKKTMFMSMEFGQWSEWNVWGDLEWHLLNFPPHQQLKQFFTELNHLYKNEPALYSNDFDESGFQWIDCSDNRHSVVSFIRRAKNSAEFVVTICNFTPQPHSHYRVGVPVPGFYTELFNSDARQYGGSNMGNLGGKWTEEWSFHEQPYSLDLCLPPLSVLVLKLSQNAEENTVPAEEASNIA
B5: Thioredoxin (Synechocystis sp. (strain PCC 6803 / Kazusa)), P52231 (parent)
chain: B1 chain
partner: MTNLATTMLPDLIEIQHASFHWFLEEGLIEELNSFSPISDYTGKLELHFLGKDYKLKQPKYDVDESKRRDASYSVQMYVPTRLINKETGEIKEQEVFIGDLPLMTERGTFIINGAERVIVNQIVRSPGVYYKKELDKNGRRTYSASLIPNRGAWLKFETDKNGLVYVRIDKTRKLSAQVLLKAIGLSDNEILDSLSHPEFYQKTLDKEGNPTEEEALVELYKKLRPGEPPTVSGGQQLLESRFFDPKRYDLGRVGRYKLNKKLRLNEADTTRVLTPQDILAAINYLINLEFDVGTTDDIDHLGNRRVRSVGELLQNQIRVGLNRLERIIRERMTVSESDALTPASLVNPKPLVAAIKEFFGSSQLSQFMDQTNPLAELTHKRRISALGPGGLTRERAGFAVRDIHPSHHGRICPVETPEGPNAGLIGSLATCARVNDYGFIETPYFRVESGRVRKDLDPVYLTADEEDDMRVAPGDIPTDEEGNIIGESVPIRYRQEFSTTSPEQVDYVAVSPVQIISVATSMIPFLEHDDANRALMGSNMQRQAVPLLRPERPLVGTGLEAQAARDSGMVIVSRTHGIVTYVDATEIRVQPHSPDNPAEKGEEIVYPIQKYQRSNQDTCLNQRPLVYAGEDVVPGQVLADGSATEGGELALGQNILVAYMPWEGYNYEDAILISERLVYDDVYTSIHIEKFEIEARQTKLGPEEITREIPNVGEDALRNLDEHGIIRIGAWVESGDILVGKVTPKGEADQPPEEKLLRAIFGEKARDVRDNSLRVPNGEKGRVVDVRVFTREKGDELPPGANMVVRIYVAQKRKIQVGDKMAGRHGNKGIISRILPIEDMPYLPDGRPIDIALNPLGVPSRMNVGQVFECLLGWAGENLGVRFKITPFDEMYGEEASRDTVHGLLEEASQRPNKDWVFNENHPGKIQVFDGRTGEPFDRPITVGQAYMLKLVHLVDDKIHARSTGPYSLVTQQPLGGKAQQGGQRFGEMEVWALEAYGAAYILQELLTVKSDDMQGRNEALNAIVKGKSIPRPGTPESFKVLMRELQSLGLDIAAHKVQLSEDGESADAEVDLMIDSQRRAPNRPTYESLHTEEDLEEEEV

Variants of: B1
Details: with syv_syny3 valS
For C35S, the “effect of a mutation on the interaction” value was “increasing interaction”.

Variants of: B2
Details: with glgc_syny3 glgC
C35S was tested, and the “effect of a mutation on the interaction” value was “increasing interaction”.

Variants of: B3
Details: with sat_syny3 sat
In the case of C35S, the “effect of a mutation on the interaction” value is reported as “increasing interaction”.

Variants of: B4
Details: with glgb_syny3 glgB
C35S was tested, and the “effect of a mutation on the interaction” value was “increasing interaction”.

Variants of: B5
Details: with rpob_syny3 rpoB
With C35S the “effect of a mutation on the interaction” value was “increasing interaction”.
